Laboratory results from PMC6220269, “Dynamic ubiquitylation of Sox2 regulates proteostasis and governs neural progenitor cell differentiation” (Nature Communications, 2018).

Biological target: T1, His-Sox2 (human, UniProt P48431 1-317)
T1 construct: Sox2, human, cloned into pGEX-6p-1 or pET-28a (+) for the GST pull-down; source: E. coli BL21, purified
Assay: pull-down; GST-tagged protein on glutathione-Sepharose 4B beads incubated with His-tagged protein for 24 h at 4 °C; washed four times with 100 mM NaCl, 10 mM Tris, 50 mM NaF, 2 mM EDTA, 0.5 mM Na3VO4, 1% Nonidet P40; western blot
Conditions: both partners purified

T1 sequence (P48431 whole entry): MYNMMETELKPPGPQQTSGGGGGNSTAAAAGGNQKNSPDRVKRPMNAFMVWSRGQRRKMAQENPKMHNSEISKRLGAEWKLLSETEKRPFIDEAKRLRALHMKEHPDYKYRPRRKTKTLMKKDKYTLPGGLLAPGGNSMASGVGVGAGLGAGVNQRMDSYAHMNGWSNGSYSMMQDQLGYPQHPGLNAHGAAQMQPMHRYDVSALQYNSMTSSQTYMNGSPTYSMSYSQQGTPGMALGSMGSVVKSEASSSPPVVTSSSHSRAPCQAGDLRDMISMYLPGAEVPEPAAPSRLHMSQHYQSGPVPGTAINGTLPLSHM

B1: GST-OTUD7B-ZF (811–843) (domain or fragment, human, UniProt Q6GQQ9 811-843, looked up)
chain: GHPETNNFCSCCYREELRRREREPDGELLVHRF
notes: OTUD7B, human, C-terminal zinc finger (ZF) domain, residues 811-843; also called OTUD7B ZF domain; source: E. coli BL21, purified
  binding result: binds
